{
  "source": "paper PMC4877013",
  "key": {"[1]": {"target": "major histocompatibility complex class II of H-2^d (A^d) on macrophages of Balb/c mice (mouse (endogenous in Balb/c peritoneal macrophages))"}, "[2]": {"target": "major histocompatibility complex class II of H-2^d (A^d) on macrophages of Balb/c mice (mouse (endogenous in Balb/c peritoneal macrophages))", "experiment": "flow cytometry on cells; as a1, but L. donovani infected macrophages (I-MΦ) of Balb/c mice"}},
  "data": [
    {"substance": "LACK_(156-173) peptide (amino acid residues 156–173 of LACK protein, Leishmania homolog of receptors for activated C-kinase)", "values": [
      {"measurement": "rate of decrease of IL-2 production by anti-LACK T cell hybridoma LMR7.5 cocultured with peptide pulsed, fixed I-MΦ (0 to 12 h after the pulse)", "setting": "[1]", "value": 17.1},
      {"measurement": "rate of decrease of IL-2 production by anti-LACK T cell hybridoma LMR7.5 cocultured with peptide pulsed, fixed I-MΦ-AL (0 to 12 h after the pulse)", "setting": "[1]", "value": 15.8},
      {"measurement": "rate of decrease of IL-2 production by anti-LACK T cell hybridoma LMR7.5 cocultured with peptide pulsed, fixed N-MΦ (0 to 12 h after the pulse)", "setting": "[1]", "value": 1.29},
      {"measurement": "MFI of LACK (156-173)-A^d at '0' h in I-MΦ against N-MΦ", "setting": "[2]", "value": 30, "unit": "% less"}
    ]}
  ]
}
